Assay results: the domain aggregation screens of Martell et al. (2025)

Assay: soluble fraction after stress (log2 fold change); higher = more stays soluble; pooled small domains, quantitative proteomics
Conditions: stress: 75 degC
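Also: 20 min heating vs room temperature control held 20 min.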

| Sequence | soluble fraction (log2) |
| --- | --- |
| HMAVSNWQKLVSSIQTQLKILALYHGPEDGIYGPNTRSAIMLYEENIGLPVTGEPSRELLAHMLDQTD | -1.64 |
| HMAVTNLTAKQISDTRWRVTWDSTLASPTYYVYRDGLLMMQTRQELYEFDAARGEQVQIDVLDDMAAAPAE | -0.853 |
| HMAWAVRAGEGVLIRAGQPGFSATTRGTALSNGAIGEGVRVRNLGSGKEIQAWVVDKGEVETR | 0.00511 |
| HMAWIAVATKEDYSEYEWKELSPTTDWSTQTFDLGDLAGKTIYAVKMFFDHDTDVKDYKFNLGQLSITSN | -0.189 |
| HMAYRLDVRNQTKGTYLVIQKKYWDKEKKQSRTKHHMSLGYVHDLQKLYSDPITHYKEVINQMNAEEKG | -2.09 |
| HMAYSEEDRRRVREELLTTALKLMSTQGIQHTTVEQVYRSVGISRSFFYAFFPTKEDLIVEAL | 0.0495 |
| HMDAAANTLRILKALSESPMSADRLAELLMEEGSGRNPRTIRRYIRALREAGFGVEHREGRYVL | -0.387 |
| HMDAAEVEATARAMLRRSALNLLAQREQTAFELKQKLSRRFPEQAALLDEVIERLQEQGLQDDTR | -0.0318 |
| HMDAEEISILLEKAVLQLPEKQKMIFQLKYFEDLSYKDIQIITGGSIGGLKANYHHAVTKIEKLLS | 0.123 |
| HMDAEETLGARLRRLRQARGLSLAGLAQAAGLSKPSIWAWENGTTAPRRTSLLALARALDVPEQQLTGV | -0.715 |
| HMDAEKHIVTPEAGLRLDRALTDALPNLSRSRVKQLINEGLVTTENKTITAPSYRVKYGDSFEISIPPPT | -0.16 |
| HMDAIIVPSVLKMKPFEAEEKLSALGLRMKINDTVYIDNMKPGVIVEQSPTAEEDVKTDRVIYVIVNA | -0.327 |
| HMDAKQLQSLKNNNEQLAGFIVRLTNFYEGLSPDIDAELSKLRSHLSGKVDYTLATVSINKINQLFMLEP | -2.97 |
| HMDALIWYVSRGQQKFGPFNYFGVLKALQDKSVFEFDYVWKEGTENWVRLAEHELFSQEKVRELLA | -0.554 |
| HMDAMLGEALRLIRVYHDLKQKQAAERLEVSTSYLSEIERGLKTPTLDIIQRYATVFDMPVSSIMFFSENL | -3.1 |
| HMDAMLSEQLREKRGELLIEVDAIAGNALRWATLSAEQQDAWAVYRQALLDVPQQAGFPNDVVWPINPN | -0.42 |
| HMDAPKPDIGMSTDQIRSSLGQPGSQTRLETGGGRIYELWIYLYPDGKELQIYFDNAKVVKMEALS | -1.19 |
| HMDAPLIIAETRVDVPDATVSDAVMMLDLRNTNALLFKNSGSGVLNMVYRRGDGTIGWGEPQ | -0.011 |
| HMDASKVKIEDLGLSTRTENALVAASIRTAGGLARKSEMDLLSTDGLGEKGITEIKKALSDLGLELK | 0.4 |
| HMDAVSTMIENLRVKTGKSLADWVGLAKGSGADKHGAMVGWLKSEHGLTHGYANLIAHETFRSAA | -0.129 |
| HMDAVTPVLSRIRDARFKRMVLPGDEIEISVTLIDTIGKFFNLSGQIRNKDKISLTVNFALALV | 0.195 |
| HMDDADPYEILGVERDAEDAEIKRAYHDLIRENHPDRLMAEGLPQEMIDVANEKVAFINDAYDRIEKLRGM | -0.193 |
| HMDDENKIEVMINEEKVQLTGKDKYVFVDIFNYIDMDLTRIHGNLVLKLNGENASHNSLLKSGDKIEARWE | -0.746 |
| HMDDERDRLVQQAMEGLSPALREILLLAYFQRMPYNQIAESLRIPLGTVKSRLHAAVAAFAKRWQELNRS | -0.77 |
| HMDDFNLSPREKDVLGHLVKGNSYKMIADELQIGYDTVHSHIKKIYKKLHVNSMSEAVAKALKNKL | 0.332 |
| HMDDGARQLVDQLNRLIANPAVSARIIHGYLILEGRVESEWEKTRTLLLAQVAGLPVIDLITVS | -2.35 |

| Sequence | soluble fraction (log2) |
| --- | --- |
| HMDDGLTRLTPRENEVLELMAQGRSNTAIAERLVLSYGAVEKNVSSIFTKLDLPLDAGDHRRVLAVLRRLN | -0.668 |
| HMDDGNHTEYIVLEKAKFYDEAGEYEEGRDLVLSFDKYQDNWKLVYTLGVFNKKLNNLEEARKYYKQALE | -0.0263 |
| HMDDHKQHLIDFYHSRKRMPTYTEMMALFGYKSKNAVARLVEKMIDAGIVTKDKLGKLLPTTLFDSVPL | -0.00288 |
| HMDDHLRLSDNERISAMSALATHFTEGRLDTSEFDERTLAASQAKSRGDLRPLFDDLPGQLPAALSP | 0.0298 |
| HMDDKLKKLEEVFEMQEGTLTPDMRLDELEEWDSMTRLSLIVMMEDDYGKKVKRSEVMNYTTVQDIVDSME | -0.0532 |
| HMDDLSPEENKVIGAQVREELARRRLSRQHLADKAKISLSTLEKALTGTRPFTLASVVRIEEALQLQLRK | -1.35 |
| HMDDPEISQEQRQQLFRTAKEHFGASGNDVLKEILADHGRDSTVKMPVSVFAEIMGDLLKRALD | 0.612 |
| HMDDPQAELLARAVRRVALAAAERTRRNEYGGVYLGLFRQFGISSYRRTPPARLHEALEWLERWRGDLM | -0.134 |
| HMDDTVILPIQINGKRRAEISVPKAMPASEVEKLALANEDVLRFLAGQPIKKLIVVPGRIINVV | 0.0584 |
| HMDDVGERIRKIREEKNLSLDEISKMTGFDVEFLAKIENKERQPQLGTVIKLSKALDSAFGRL | 0.162 |
| HMDDVGYLRKRLQQALAQLSDDLRNTYTLFQIGKQSIKQIAAETGASESLVKVRIHRAKQKLQELLADLQ | -1.47 |
| HMDEDLQEALRKLNPIQANERKLLLKMLEQHRWNVSSVAKAFDVSRNTLYRRLHKLHIPLSNPSE | -1.33 |
| HMDEEAIELTQEVMKLPPKQREVILLYYYHGLTGKEIAKALGISGAAVSKRLKQAKNQLHFALK | -0.282 |
| HMDEEVLVVQEGGERLDVFVAANAEGITRSFVQNLIKKGDVTVDGAPRKANYRLRSGQVVRFSLPEP | -0.204 |
| HMDEFEEGVITYFNSEKGFGFIRESKTKQSVFVHSKQLSSPVQLNDKVKFIVNKGLKGLEATEVSVI | -0.818 |
| HMDEFQLTPREQEILGLLVKGYTYKRIASELNLSYATVNRHVSNVYVKLRVHSVNEAVALAVRKGL | -1.39 |
| HMDEKLAHKLVSDFRQAAASLERFPFRNPVLRSEVFTVEKYRKLVFDKYHILLYQVKDQVVYVEYVIDGRQ | -0.94 |
| HMDEKVTIPSVSGLLLSEAKTKLVDAGLTVETVYDDESKEAKDTVLSQSPLQYGKVDKGTVVTLTVSSGKG | 0.332 |
| HMDELPKDILRSFGLPDKPWAMELLRNLRRDGFALDGETARAYAEMAAMKPPRTDARQWMTAADVAYRRG | -0.343 |
| HMDEMPVEFVKISIKAGHPWENRKIKDLASLPDLLLVLILRGEERIIPNGNTVVLAGDKIVLSALSPE | -2.74 |
| HMDENILKTRIEDLDLSVRTIKALTGASIRTVSGLARKKESDLLEISGLGDKGIQEIKRALGSLGITL | -0.498 |
| HMDENTEQESQTVVVPDVTGKSLSEAASILREAGLDYLAEQTGTVVTKQMPLPDAEVLINTTVLLYTDSE | 0.143 |
| HMDEPSITYGKVKVQTSLNVRQGPGTQYARIGSLGPNVRIQILGQEGQWYKIKYGNLQGYVHSDYVELEK | -0.026 |
| HMDEQKNREIALIENIQREDLNPYEKALGIRNLMDKYGLTQEEVSKRIGKSRSAVSNTVRILNLAPDVL | 0.125 |
| HMDEQLAWLYRKINAFSEIDKALILLYLEDKKYDEIAETLGISSVNARVKMNRIKKRLKEMINDR | -3.14 |
| HMDEQVETLKNLISELPKEQLEVLVMRHYEDLSFKEISEKTGVSINTALGRMRYALINIRKLMKENN | -0.145 |

| Sequence | soluble fraction (log2) |
| --- | --- |
| HMDESLIEEAKAMILQMKIEGSVRVRSNGLLEFRNPLFGSVYGRSVEELQEKLNKKVREQKSRI | -0.443 |
| HMDEVPMPPEYQYLRVGSRVHHATFGWGKVTRLSQPWPQTRAEVFFENIGPKKLVLAHAHLTMD | -3.26 |
| HMDEYTAVDSRLDLELAMKRLKPEEAEVLRLVFDYGLPQRAIAERLGVSQMSVSRMQRRAIGKLKRWLSDN | -1.43 |
| HMDFKKKIIESWADIAETLRGLTVDSNISDWTTKQKNAYETLADKAELAGLSIADLNSILVELGYM | -0.119 |
| HMDFNDPTMEKSLVELPAMSNSTLRDLSENNIKKLEELAEMSVGELMDIASKISESDASALIMEARKPWF | -0.312 |
| HMDFRVGVWVELVQQRRSVRTQLTWVSPQHTLFLFTAKDGSTQSMTLRMRDKLLAEGNLRIVAPPSR | -2.37 |
| HMDFSENEPVTVRVLSILKNNTIRIAVKGAVLQAQTALSQDIREGAFLLMRVHITDNTVVLTPY | 0.112 |
| HMDFSNVNFSQVSDSELDLLMRRASAQGYTQFDLLKIARAQGLTQAEIEKLDKRFKSAETVAYVAENA | 0.0531 |
| HMDFTHFTLKQDGKFAGSSNLLHQAVIAAARLAAETGKPVTVMAHVRGGGTRKAVFNPDGTNDKIWN | -1.05 |
| HMDGAPVTVIKNGEVDVATTMRVGLSASELMFKLRAAGVDEVQIVHRAVLEQNGQLTIIKYGEE | -2.03 |
| HMDGASVQRITELTATLNRYRHEYYNLAKPSVSDAVYDRLFDELAALEQKTGIVLSNSPTQTV | -0.326 |
| HMDGFVFVMPIKETRMFSVNDERPLVGIVKYSNGEFEKEQLIGFRPNSEYEFIIEGQRLYRVPVNSITIK | -1.08 |
| HMDGIRLYPGLMIEHKNFGRGQVVSVNRERGTFTAFFGKNGTRTLTIQILKTDTVRPLASQKAGK | -0.594 |
| HMDGKPSLIISNGQINYKEMVKLRYSLEDLLFQLRQNSIKSIEEVEYAFLESNGKLSIFPYNFL | -2.53 |
| HMDGLGLGAVILAQRKRQGWTQEDLAARIGVSKGAVSKWETGQSYPDLPLVPRLAALFHITVDELLDYR | -2.35 |
| HMDGLIRLNKLLATLGVESRRHAEEMIIAGRITVDGVTATEKGQKVRRGAVIKVDGVEVGPPP | -0.581 |
| HMDGQPQLLIKNGQLLVSTALKNGMSANDLMFRLRTEGITDIRYVKRAVLEQNGQLTITQVGDD | -0.622 |
| HMDGVTEYTVKSGDSFSAIINKHYNVNYDEKLMQAVAAYNNIEDMNKLQLGQIIKLPPKEQLNL | -0.0462 |
| HMDGYVPAERIASEVGVSARTITREMHGLEMTLMPYGIALLRRTGAGFMLAGTAKALADLRKHMTEDADTQ | 0.134 |
| HMDHAHWEEHEVKLLLTLAIQEKEKFNWNQFGLTREGWRNIYPHFPQYSRKQINNKFDFLKQKYRAWKDS | -1.8 |
| HMDHAVINSEEVTIKDLSEKIGVSAAEIIKALFTEGIIKTINDKIEYEYAQYVAGMFGVELTLKL | 0.357 |
| HMDIANEQEQIFITAMRNDDFNPILELKMKGYQPSKNVLKSLQPDVSSTTFIAAAKIFQMEGVL | -1 |
| HMDIASNQIQGIKDSVGGDENYSKMVAWALESLPAEEVKAFNDLTETANAPAIKMAVQGLYSQYNNAM | 0.195 |
| HMDIDGVSENGRLILAALDKEALDFDTLAAETGIQESRLRTELTLLEIRKLIMKLPGQRYRLI | -2.39 |
| HMDIDNDIIENILVMGVTKAIAINLSNEFERHRIIANIEYAKEKSKNSEIKNISAFTVEAIRQDYANS | -1.34 |
